Data as given in patent US20240288446A1 (H PITAUX UNIVERSITAIRES DE STRASBOURG, published 2024).

Target: T1, α1-proteinase inhibitor (human, UniProt P01009 25-418)
T1 construct: also called α1-PI; α1PI
Assay: ELISA of HNE-α1-PI complexes in human plasma

T1 sequence (P01009 25-418 limits assumed): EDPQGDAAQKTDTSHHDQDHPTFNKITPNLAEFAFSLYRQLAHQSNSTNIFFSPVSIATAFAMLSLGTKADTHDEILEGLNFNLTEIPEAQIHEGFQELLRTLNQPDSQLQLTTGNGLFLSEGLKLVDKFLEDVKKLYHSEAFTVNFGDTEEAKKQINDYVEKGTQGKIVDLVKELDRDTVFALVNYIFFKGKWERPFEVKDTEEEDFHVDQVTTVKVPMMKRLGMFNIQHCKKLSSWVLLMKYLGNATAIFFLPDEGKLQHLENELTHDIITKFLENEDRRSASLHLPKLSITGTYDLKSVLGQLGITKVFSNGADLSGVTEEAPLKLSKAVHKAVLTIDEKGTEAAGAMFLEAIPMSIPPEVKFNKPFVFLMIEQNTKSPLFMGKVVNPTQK

B1: Human neutrophil elastase (enzyme, UniProt P08246 30-247, looked up)
chain: IVGGRRARPHAWPFMVSLQLRGGHFCGATLIAPNFVMSAAHCVANVNVRAVRVVLGAHNLSRREPTRQVFAVQRIFENGYDPVNLLNDIVILQLNGSATINANVQVAQLPAQGRRLGNGVQCLAMGWGLLGRNRGIASVLQELNVTVVTSLCRRSNVCTLVRGRQAGVCFGDSGSPLVCNGLIHGIASFVRGGCASGLYPDAFAPVAQFVNWIDSIIQ
notes: Tested free (purified, in supernatants or in plasma) and as an HNE-DNA complex on NETs; also called HNE; leukocyte elastase
Question: Does B1 bind?
Answer: binds
